This is an account of results in patent publication US20120087858A1 (AbbVie / Abbott, published 2012).

Experiment [1] has as its target T1, Recombinant Human TNF-α/TNFSF1A (human, UniProt P01375 77-233). Put plainly: cell-based or functional assay.
The target of experiment [2] is T1, Recombinant Human TNF-α/TNFSF1A. Put plainly: Biacore SPR. As to the method:
(§1) The BIACORE assay (Biacore, Inc, Piscataway, N.J.) determines the affinity of antibodies or DVD-Ig with kinetic measurements of on-rate and off-rate constants. Binding of antibodies or DVD-Ig to a target antigen (for example, a purified recombinant target antigen) is determined by surface plasmon resonance-based measurements with a Biacore® 1000 or 3000 instrument (Biacore® AB, Uppsala, Sweden) using running HBS-EP (10 mM HEPES [pH 7.4], 150 mM NaCl, 3 mM EDTA, and 0.005% surfactant P20) at 25° C. All chemicals are obtained from Biacore® AB (Uppsala, Sweden) or otherwise from a different source as described in the text. For example, approximately 5000 RU of goat anti-mouse IgG, (Fcγ), fragment specific polyclonal antibody (Pierce Biotechnology Inc, Rockford, Ill.) diluted in 10 mM sodium acetate (pH 4.5) is directly immobilized across a CMS research grade biosensor chip using a standard amine coupling kit according to manufacturer's instructions and procedures at 25 μg/ml. Unreacted moieties on the biosensor surface are blocked with ethanolamine. Modified carboxymethyl dextran surface in flowcell 2 and 4 is used as a reaction surface. Unmodified carboxymethyl dextran without goat anti-mouse IgG in flow cell 1 and 3 is used as the reference surface. For kinetic analysis, rate equations derived from the 1:1 Langmuir binding model are fitted simultaneously to association and dissociation phases of all eight injections (using global fit analysis) with the use of Biaevaluation 4.0.1 software. Purified antibodies or DVD-Ig are diluted in HEPES-buffered saline for capture across goat anti-mouse IgG specific reaction surfaces. Antibodies or DVD-Ig to be captured as a ligand (25 μg/ml) are injected over reaction matrices at a flow rate of 5 μl/min. The association and dissociation rate constants, kₒₙ (M⁻¹s⁻) and koff(s⁻¹) are determined under a continuous flow rate of 25 μl/min. Rate constants are derived by making kinetic binding measurements at different antigen concentrations ranging from 10-200 nM. The equilibrium dissociation constant (M) of the reaction between antibodies or DVD-Igs and the target antigen is then calculated from the kinetic rate constants by the following formula: KD=koff/kₒₙ. Binding is recorded as a function of time and kinetic rate constants are calculated.

Another experiment concerns the target T2, Recombinant Human SOST (human, UniProt Q9BQB4 24-213).
T2 construct: Biacore reagent from R&D Systems; the Wnt-1/luciferase assay used Human Sclerostin (Abbott PR-1261069); also called Sclerostin; Human Sclerostin
T2 sequence (looked up): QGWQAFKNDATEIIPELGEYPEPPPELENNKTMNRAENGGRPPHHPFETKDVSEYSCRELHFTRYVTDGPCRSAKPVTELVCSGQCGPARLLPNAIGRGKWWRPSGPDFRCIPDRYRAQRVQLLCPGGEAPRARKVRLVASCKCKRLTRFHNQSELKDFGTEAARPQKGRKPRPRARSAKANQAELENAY
The experiment is described as follows: Biacore SPR. The protocol:
as §1

T1 sequence (P01375 77-233 limits assumed): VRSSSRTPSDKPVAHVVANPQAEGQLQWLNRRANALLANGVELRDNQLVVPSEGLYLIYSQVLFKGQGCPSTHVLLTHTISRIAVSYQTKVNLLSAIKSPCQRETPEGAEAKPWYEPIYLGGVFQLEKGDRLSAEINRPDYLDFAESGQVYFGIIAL

B1: DVD1518 (bispecific antibody, human IgG1, kappa)
heavy: not shown
light: DVQMIQSPSSLSASLGDIVTMTCQASQGTSINLNWFQQKPGKAPKLLIYGSSNLEDGVPSRFSGSRYGTDFTLTISSLEDEDLATYFCLQHSYLPYTFGGGTKLEIKRTVAAPDIQMTQSPSSLSASVGDRVTITCRASQGIRIDLGWYQQKPGKAPKRLIYAASTLQSGVPSRFSGSGSGTEFIFTISSLQPEDFASYYCLQHKSYPLTFGGGTKVEIKRTVAAPSVFIFPPSDEQLKSGTASVVCLLNNFYPREAKVQWKVDNALQSGNSQESVTEQDSKDSTYSLSSTLTLSKADYEKHKVYACEVTHQGLSSPVTKSFNRGEC
For the molecule B1, in experiment [1], the “TNFα Neutralization Assay EC50 (L929 cells)” value (“TNFα Neutralization Assay EC50” for short) came to 890 pM.

B2: DVD1448 (bispecific antibody, human IgG1, kappa)
heavy: not shown
light: DVLMTQTPLSLPVTPGEPASISCTSSQNIVHSNGNTYLEWYLQKPGQSPQLLIYKVSNRFSGVPDRFSGSGSGTDFTLKISRVEAEDVGVYYCFQVSHVPYTFGGGTKVEIKRTVAAPSVFIFPPDIVMTQSHKFMSTTVGDRVSITCKASQAVSSAVAWYQQKPGQSPKLLIYWASTRHTGVPDRFTGSGSVTDFTLTIHNLQAEDLALYYCQQHYSTPFTFGSGTKLEIKRTVAAPSVFIFPPSDEQLKSGTASVVCLLNNFYPREAKVQWKVDNALQSGNSQESVTEQDSKDSTYSLSSTLTLSKADYEKHKVYACEVTHQGLSSPVTKSFNRGEC
As to B2, in experiment [1], the “TNFα Neutralization Assay EC50” value was 1390 pM.

B3: DVD1496 (bispecific antibody, human IgG1, kappa)
heavy: not shown
light: DVQMIQSPSSLSASLGDIVTMTCQASQGTSINLNWFQQKPGKAPKLLIYGSSNLEDGVPSRFSGSRYGTDFTLTISSLEDEDLATYFCLQHSYLPYTFGGGTKLEIKRTVAAPDIVMTQSHKFMSTTVGDRVSITCKASQAVSSAVAWYQQKPGQSPKLLIYWASTRHTGVPDRFTGSGSVTDFTLTIHNLQAEDLALYYCQQHYSTPFTFGSGTKLEIKRTVAAPSVFIFPPSDEQLKSGTASVVCLLNNFYPREAKVQWKVDNALQSGNSQESVTEQDSKDSTYSLSSTLTLSKADYEKHKVYACEVTHQGLSSPVTKSFNRGEC
For the molecule B3, in experiment [1], the “TNFα Neutralization Assay EC50” value was determined as 85 pM.

B4: DVD1522 (bispecific antibody, human IgG1, kappa)
heavy: not shown
light: DVVMTQTPLSLPVSLGDQASISCTSGQSLVHINGNTYLHWYLQKPGQSPKLLIYKVSNLFSGVPDRFSGSGSGTDFTLKISRVEAEDLGVYFCSQSTHFPFTFGTGTKLEIKRTVAAPDIQMTQSPSSLSASVGDRVTITCRASQGIRIDLGWYQQKPGKAPKRLIYAASTLQSGVPSRFSGSGSGTEFIFTISSLQPEDFASYYCLQHKSYPLTFGGGTKVEIKRTVAAPSVFIFPPSDEQLKSGTASVVCLLNNFYPREAKVQWKVDNALQSGNSQESVTEQDSKDSTYSLSSTLTLSKADYEKHKVYACEVTHQGLSSPVTKSFNRGEC
Consider B4, for which, in experiment [1], the “TNFα Neutralization Assay EC50” value worked out at 4180 pM.

B5: DVD1476 (bispecific antibody, human IgG1, kappa)
heavy: not shown
light: DVQMIQSPSSLSASLGDIVTMTCQASQGTSINLNWFQQKPGKAPKLLIYGSSNLEDGVPSRFSGSRYGTDFTLTISSLEDEDLATYFCLQHSYLPYTFGGGTKLEIKRTVAAPSVFIFPPDIQMTQSPSSLSASVGDRVTITCRASQGIRIDLGWYQQKPGKAPKRLIYAASTLQSGVPSRFSGSGSGTEFIFTISSLQPEDFASYYCLQHKSYPLTFGGGTKVEIKRTVAAPSVFIFPPSDEQLKSGTASVVCLLNNFYPREAKVQWKVDNALQSGNSQESVTEQDSKDSTYSLSSTLTLSKADYEKHKVYACEVTHQGLSSPVTKSFNRGEC
As for B5, the “TNFα Neutralization Assay EC50” value in experiment [1] was determined as 139 pM.

B6: AB213 (antibody, V domains shown)
VH: QVQLKESGPGLVAPSQSLSITCTVSGFSLTDYGVNWVRQPPGKGLEWLGMIWGDGSTDYDSTLKSRLSISKDNSKSQIFLKMNSLQTDDTARYYCAREWHHGPVAYWGQGTLVTVSA
VL: DIVMTQSHKFMSTTVGDRVSITCKASQAVSSAVAWYQQKPGQSPKLLIYWASTRHTGVPDRFTGSGSVTDFTLTIHNLQAEDLALYYCQQHYSTPFTFGSGTKLEIKR
notes: Parent antibody
Broadly, the Kd is the concentration at which binding is half-saturated. One may read the koff as the first-order rate constant of dissociation. In general, kon refers to the rate constant with which the complex forms. For the molecule B6, the “TNFα Neutralization Assay EC50” value in experiment [1] worked out at 124 pM. Moreover, in experiment [2], the Kd came to 33.5 pM, the koff came out at 0.000108 s⁻¹ and the on-rate constant (kon) was determined as 3.23e+06 M⁻¹ s⁻¹.

B7: AB218 (antibody, V domains shown)
VH: EVQLVESGGGLIQPGGSLRLSCAASGFTVSRNYMSWVRQAPGKGLEWVSVIYSGDRTYYADSVKGRFTISRDNSKNTLYLQMNSLRAEDTAVYYCARGEGGFDYWGQGTLVTVSS
VL: EIVMTQSPATLSVSPGERATLSCRASQSVSSNLAWYQQKPGQAPRLLIHGASIRATGLPARFSGSGSGTEFTLTISSLQSEDFAVYYCQQYNYWWTFGQGTKVEIKR
notes: Parent antibody
As for B7, the “TNFα Neutralization Assay EC50” value in experiment [1] was 45 pM. Besides, in experiment [2], the Kd is 28.8 pM, the dissociation rate constant (koff) stood at 5.15e-05 s⁻¹ and the kon turned out to be 1.79e+06 M⁻¹ s⁻¹.

B8: DVD1474 (bispecific antibody, human IgG1, kappa)
heavy: not shown
light: DVLMTQTPLSLPVTPGEPASISCTSSQNIVHSNGNTYLEWYLQKPGQSPQLLIYKVSNRFSGVPDRFSGSGSGTDFTLKISRVEAEDVGVYYCFQVSHVPYTFGGGTKVEIKRTVAAPSVFIFPPDIQMTQSPSSLSASVGDRVTITCRASQGIRIDLGWYQQKPGKAPKRLIYAASTLQSGVPSRFSGSGSGTEFIFTISSLQPEDFASYYCLQHKSYPLTFGGGTKVEIKRTVAAPSVFIFPPSDEQLKSGTASVVCLLNNFYPREAKVQWKVDNALQSGNSQESVTEQDSKDSTYSLSSTLTLSKADYEKHKVYACEVTHQGLSSPVTKSFNRGEC
Consider B8, for which the “TNFα Neutralization Assay EC50” value in experiment [1] was determined as 273 pM.

B9: AB217 (antibody, V domains shown)
VH: QVQLVESGGGVVQPGRSLRLSCAASGFTFSSYDMHWVRQAPGKGLEWVAVIWSDGSIKYYADSVKGRFTISRDNSKNTLYLQMNSLRAEDTAVYYCAREVESAMGGFYYNGMDVWGQGTTVTVSS
VL: DIQMTQSPSSLSASVGDRVTITCRASQGIRIDLGWYQQKPGKAPKRLIYAASTLQSGVPSRFSGSGSGTEFIFTISSLQPEDFASYYCLQHKSYPLTFGGGTKVEIKR
notes: Parent antibody
With B9, in experiment [1], the “TNFα Neutralization Assay EC50” value was found to be 76.2 pM. In experiment [2], the Kd was 27.2 pM, the koff was determined as 5.04e-05 s⁻¹ and the kon is 1.85e+06 M⁻¹ s⁻¹.

B10: DVD1516 (bispecific antibody, human IgG1, kappa)
heavy: not shown
light: DVLMTQTPLSLPVTPGEPASISCTSSQNIVHSNGNTYLEWYLQKPGQSPQLLIYKVSNRFSGVPDRFSGSGSGTDFTLKISRVEAEDVGVYYCFQVSHVPYTFGGGTKVEIKRTVAAPDIQMTQSPSSLSASVGDRVTITCRASQGIRIDLGWYQQKPGKAPKRLIYAASTLQSGVPSRFSGSGSGTEFIFTISSLQPEDFASYYCLQHKSYPLTFGGGTKVEIKRTVAAPSVFIFPPSDEQLKSGTASVVCLLNNFYPREAKVQWKVDNALQSGNSQESVTEQDSKDSTYSLSSTLTLSKADYEKHKVYACEVTHQGLSSPVTKSFNRGEC
B10: the “TNFα Neutralization Assay EC50” value in experiment [1] is 8710 pM.

B11: AB022 (antibody, V domains shown)
VH: EVQLQQSGPELVTPGASVKISCKASGYTFTDHYMSWVKQSHGKSLEWIGDINPYSGETTYNQKFKGTATLTVDKSSSIAYMEIRGLTSEDSAVYYCARDDYDASPFAYWGQGTLVTVSA
VL: DVQMIQSPSSLSASLGDIVTMTCQASQGTSINLNWFQQKPGKAPKLLIYGSSNLEDGVPSRFSGSRYGTDFTLTISSLEDEDLATYFCLQHSYLPYTFGGGTKLEIKR
notes: Parent antibody; also called SOST parent antibody
For the molecule B11, in the experiment with Recombinant Human SOST, the dissociation constant Kd was 40.8 pM, the koff was 0.000396 s⁻¹ and the association rate constant (kon) stood at 9.68e+06 M⁻¹ s⁻¹.

B12: DVD1507 (bispecific antibody, human IgG1, kappa)
heavy: not shown
light: DIVMTQSHKFMSTTVGDRVSITCKASQAVSSAVAWYQQKPGQSPKLLIYWASTRHTGVPDRFTGSGSVTDFTLTIHNLQAEDLALYYCQQHYSTPFTFGSGTKLEIKRTVAAPDVVMTQTPLSLPVSLGDQASISCTSGQSLVHINGNTYLHWYLQKPGQSPKLLIYKVSNLFSGVPDRFSGSGSGTDFTLKISRVEAEDLGVYFCSQSTHFPFTFGTGTKLEIKRTVAAPSVFIFPPSDEQLKSGTASVVCLLNNFYPREAKVQWKVDNALQSGNSQESVTEQDSKDSTYSLSSTLTLSKADYEKHKVYACEVTHQGLSSPVTKSFNRGEC
As to B12, the “TNFα Neutralization Assay EC50” value in experiment [1] turned out to be 133 pM.
